Key:
[1] = target: 11MUTB Env trimer (SOSIP.664) derived from wtBG505 (HIV-1 BG505); test: SPR (Biacore T200), SOSIP captured on 8ANC195 IgG, Fab injected, equilibrium fit 1:1
[2] = target: RC1 Env trimer (BG505-derived SOSIP.664 soluble gp140) (HIV-1 BG505); test: as above

“Fab of the common inferred germline (iGL) precursor of PGT121 and 10-1074” was tested, and the Kd [1] was 50 µM and the Kd [2] was 50 µM.

From patent US20220031830A1
